The source of these data is patent US11806404B2, “Site specific homogeneous with KSP inhibitors” (BAYER PHARMA AKTIENGESELLSCHAFT, priority 2015, dated 2023).

Read-outs that look alike come from different tables or passages of the source.

For one data set, the system named is NCI-H292. In words: MTT assay, cytotoxic effects of the ADCs. The format is cell-based. The conditions noted are these: Homo sapiens, metabolite. On the procedure:
(§1) The analysis of the cytotoxic effects of the anti-TWEAKR-ADCs was carried out with various cell lines:
NCI-H292: human mucoepidermoid lung carcinoma cells, ATCC-CRL-1848, standard medium: RPMI 1640 (Biochrom; #FG1215, stab. glutamine)+10% FCS (Biochrom; #S0415), TWEAKR-positive, EGFR-positive.
(§2) The cells are cultivated by a standard method, as indicated in the […] (ATCC) for the respective cell lines.
(§3) The test was carried out by detaching the cells with a solution of Accutase in PBS (Biochrom AG #L2143), pelleting, resuspending in culture medium, counting and seeding the cells into a 96-well culture plate with white bottom (Costar #3610, LoVo:1000 cells/well, SK-HEP-1: 1200 cell/well, NCI H292: 1500 cell/well in a total volume of 100 μL). The cells were then incubated in an incubator at 37° C. and 5% carbon dioxide. After 48 h, the antibody drug conjugates were added in 10 μl of culture medium in concentrations of from 10^−5M to 10^−13M to the cells (triplicates) and incubated in an incubator at 37° C. and 5% carbon dioxide. After 96h, the proliferation was measured using the MTT assay (ATCC, Manassas, Va., USA, catalogue No. 30-1010K). […] The dye formed was detected at 570 nm (Infinite M1000 pro, Fa. Tecan). Based on the measured data the IC50 value was determined from the DRC (dose response curve). […]
Background: Formazan colour is commonly taken as a measure of viable cells.

A further data set deals with KPL4. In words: MTT assay, cytotoxic effects of the ADCs. It counts as cell-based. The conditions noted are these: Homo sapiens, metabolite, read-out: KPL-4 IC50 [M] MTT Assay. The procedure:
as §1
KPL4: human breast carcinoma cells, standard medium: RPMI 1640+GlutaMAX I+10% FBS, cell bank, Bayer Pharma AG (identity checked and confirmed on 19 Jul. 2012 at DSMZ), Berlin, ERBB2-positive.
as §2, §3

Data set [1] in a line: Caco-2 flux assay for cell permeability. It counts as in vitro ADME. The note with it: human; Caco-2, 2 hours. On the procedure:
The cell permeability of a substance can be investigated by means of in vitro testing in a flux assay using Caco-2 cells [M. D. Troutman and D. R. Thakker, Pharm. Res. 20 (8), 1210-1224 (2003)]. For this purpose, the cells were cultured for 15-16 days on 24-well filter plates. For the determination of permeation, the respective working example was applied in a HEPES buffer to the cells either apically (A) or basally (B) and incubated for 2 hours. After 0 hours and after 2 hours, samples were taken from the cis and trans compartments. The samples were separated by HPLC (Agilent 1200, Böblingen, Germany) using reverse phase columns. The HPLC system was coupled via a Turbo Ion Spray Interface to a Triple Quadropol mass spectrometer API 4000 (Applied Biosystems Applera, Darmstadt, Germany). The permeability was evaluated on the basis of a Papp value, which was calculated using the formula published by Schwab et al. [D. Schwab et al., J. Med. Chem. 46, 1716-1725 (2003)].
Of critical importance for toxophores which are released intracellularly is the permeability from B to A [Papp (B−A)] and the ratio of Papp (B−A) to Papp (A−B) (efflux ratio): the lower this permeability, the slower the active and passive transport processes of the substance through the monolayer of Caco-2 cells.

Data set [2] concerns the target hTNFRSF12 amino acids a28-80-S40R-hIgG1-Fc (TPP-1987) (Homo sapiens (Human), UniProt Q9NP84, S40R). In words: ELISA mutein binding. The note with it: mutein coated 62 ng/ml, biotinylated IgG; read-out: Effect of muteins on antibody binding: S40R. The procedure: (§4) To this end, the full-length ectodomain (amino acids 28-80) having the individual amino acid substitutions below were expressed and purified as Fc fusion proteins: T33Q; S40R; W42A; M50A; R56P; H60K; L65Q.
(§5) To obtain dose-reaction data, the different TWEAKR-Fc muteins were coated at a low concentration (62 ng/ml) onto a 384-well Maxisorb ELISA plate, and a serial 2-fold dilution of biotinylated IgG beginning with a concentration of 100 nM was used as a soluble binding partner. Detection was carried out using streptavidin-HRP and Amplex Red.
(§6) IgGs were biotinylated using an about 2-fold molar excess of biotin-LC-NHS (Pierce; Cat. No. 21347) according to the instructions of the manufacturer and desalted using Zeba desalting columns (Pierce; Cat. No. 89889). The dose-reaction data were fitted and the IC50s were determined.
In general terms: In an ELISA, binding on a coated surface is turned into a signal by an enzyme label.

Data set [3] concerns the target hTNFRSF12 amino acids a28-80-T33Q-hIgG1-Fc (TPP-1986) (Homo sapiens (Human), UniProt Q9NP84, T33Q). In words: ELISA mutein binding. The conditions noted are these: mutein coated 62 ng/ml, biotinylated IgG; read-out: Effect of muteins on antibody binding: T33Q. On the procedure:
as §4, §5, §6

Data set [4] concerns the target hTNFRSF12 amino acids a28-80-H60K-hIgG1-Fc (TPP-1989) (Homo sapiens (Human), UniProt Q9NP84, H60K). In words: ELISA mutein binding. The conditions noted are these: mutein coated 62 ng/ml, biotinylated IgG; read-out: Effect of muteins on antibody binding: H60K. On the procedure: as §4, §5, §6
Data set [5] has as its target hTNFRSF12 amino acids a28-80-W42A-hIgG1-Fc (TPP-1985) (Homo sapiens (Human), UniProt Q9NP84, W42A). In words: ELISA mutein binding. The conditions noted are these: mutein coated 62 ng/ml, biotinylated IgG; read-out: Effect of muteins on antibody binding: W42A. On the procedure:
as §4, §5, §6

Data set [6] deals with hTNFRSF12 amino acids a28-80-R56P-hIgG1-Fc (TPP-2683) (Homo sapiens (Human), UniProt Q9NP84, R56P). In words: ELISA mutein binding. The conditions noted are these: mutein coated 62 ng/ml, biotinylated IgG; read-out: Effect of muteins on antibody binding: R56P. The procedure: as §4, §5, §6
The target of data set [7] is hTNFRSF12 amino acids a28-80-L65Q-hIgG1-Fc (TPP-1990) (Homo sapiens (Human), UniProt Q9NP84, L65Q). In words: ELISA mutein binding. The conditions noted are these: mutein coated 62 ng/ml, biotinylated IgG; read-out: Effect of muteins on antibody binding: L65Q. On the procedure: as §4, §5, §6
For data set [8], the target named is hTNFRSF12 amino acids a28-80-M50A-hIgG1-Fc (TPP-1988) (Homo sapiens (Human), UniProt Q9NP84, M50A). In words: ELISA mutein binding. The conditions noted are these: mutein coated 62 ng/ml, biotinylated IgG; read-out: Effect of muteins on antibody binding: M50A. The procedure:
as §4, §5, §6

In another data set the target is TWEAKR (Homo sapiens (Human), UniProt Q9NP84). The note with it: literature values; read-out: published KD values; cited from earlier work.
The target of data set [9] is recombinant human TWEAKR protein (TPP-2305) (Homo sapiens (Human), UniProt Q9NP84). In words: Biacore surface plasmon resonance binding affinity. The note with it: for ka / kd: monovalent, 1:1 binding model. The procedure: Binding affinities of anti-TWEAKR antibodies were examined using surface plasmon resonance analysis on a Biacore T100 instrument (GE Healthcare Biacore, Inc.). The antibodies were immobilized on a CMS sensor chip using an indirect capture reagent, anti-human IgG(Fc). Reagents of the “Human Antibody Capture Kit” (BR-1008-39, GE Healthcare Biacore, Inc.) were used as described by the manufacturer. Anti-TWEAKR antibodies were injected at a concentration of 10 μg/ml at 10 μl/min for 10 sec.
Sensorgrams were generated after in-line reference cell correction, followed by subtraction of the buffer sample. The dissociation constant (KD) was calculated based on the ratio of association (kon) and dissociation (koff) constants, obtained by fitting sensorgrams using a 1:1 first order binding model.
In general terms: In SPR one partner is held on a chip, and binding of the other changes the refractive index at the surface.

In data set [10] the target is hTNFRSF12 amino acids a28-80-hIgG1-Fc (TPP-599) (Homo sapiens (Human), UniProt Q9NP84). In words: ELISA mutein binding (wild type). The note with it: coated 62 ng/ml, biotinylated IgG; read-out: Effect of muteins on antibody binding: WT. On the procedure:
as §4, §5, §6

[11] abbreviates: Biacore, read-out: KD (affinity to TWEAKR).

In the case of `CC(=O)N[C@@H](CCCCNC(=O)CC[C@H](N)C(=O)O)C(=O)NCCNC(=O)[C@@H](N)CCN(C(=O)CO)[C@@H](c1cc(-c2cc(F)ccc2F)cn1Cc1ccccc1)C(C)(C)C.O=C(O)C(F)(F)F` [Example M100, N^6-L-gamma-glutamyl-N^2-acetyl-N-[2-({(2S)-2-amino-4-[{(1R)-1-[1-benzyl-4-(2,5-difluorophenyl)-1H-pyrrol-2-yl]-2,2-dimethylpropyl}(glycoloyl)amino]butanoyl}amino)ethyl]-L-lysinamide trifluoro acetate (1:1)], the IC50 with NCI-H292 is above 500 nM; in the data set with KPL4, above 5e-07 M. The molecule also came in with a basolateral-to-apical permeability (Papp B→A) at 2 h in data set [1] of 0.12 ×10⁻⁶ cm/s.

B1: 18.3.3(TPP-2193): comparative anti-TWEAKR antibody; variable domains "obtained from the patent literature WO2009/020933", constant region added, "resulting in full-length IgGs" (antibody)
heavy: EVKLGESGGGLVQPGGSMKLSCVASGFPFTKYWMNWVRQSPEKGLEWVAEIRLKSDNYATHYAESAKGRFTISRDDSRSSVYLQMNNLRAEDTAIYYCSPTYADTMDYWGQGTSVTVSSAKTTAPSVYPLAPVCGDTTGSSVTLGCLVKGYFPEPVTLTWNSGSLSSGVHTFPAVLQSDLYTLSSSVTVTSSTWPSQSITCNVAHPASSTKVDKKIEPRGPTIKPCPPCKCPAPNLLGGPSVFIFPPKIKDVLMISLSPIVTCVVVDVSEDDPDVQISWFVNNVEVHTAQTQTHREDYNSTLRVVSALPIQHQDWMSGKEFKCKVNNKDLPAPIERTISKPKGSVRAPQVYVLPPPEEEMTKKQVTLTCMVTDFMPEDIYVEWTNNGKTELNYKNTEPVLDSDGSYFMYSKLRVEKKNWVERNSYSCSVVHEGLHNHHTTKSFSRTPG
light: DIVLTQSPASLAVSLGQRATISCKASQSVSTSTYSYMQWYQQRPGQSPKLLIKYASKLDSGVPARFSGSGSGTDFTLNIHPVEEEDTATYYCQHSWELPYTFGGGTRLEIKRADAAPTVSIFPPSSEQLTSGGASVVCFLNNFYPKDINVKWKIDGSERQNGVLNSWTDQDSKDSTYSMSSTLTLTKDEYERHNSYTCEATHKTSTSPIVKSFNRNEC
modifications: Mus Musculus
As for B1, the IC50 is 0.001 to 0.15 nM in data set [2]; 0.001 to 0.15 nM in [3]; 0.001 to 0.15 nM in data set [4]; above 50 nM in [5]; above 50 nM in data set [6]; 0.001 to 0.15 nM in [7]. Moreover, the IC50 in [8] and in data set [10] was 0.001 to 0.15 nM in each case. The Kd with TWEAKR was 0.2 nM; in data set [9] (setting [11]) it was 0.7 to 3.7 nM. In addition, in data set [9], the “ka” value was 1.64e+07 M⁻¹ s⁻¹. Also, the “kd” value in data set [9] was 0.0285 s⁻¹.

B2: P2D3(TPP-2196): comparative anti-TWEAKR antibody; variable domains from patent literature "WO2009/020933 and WO2009/140177", constant region added, "resulting in full-length IgGs" (antibody)
heavy: QVSLKESGPGILQPSQTLSLTCSFSGFSLSTSGMGVSWIRQPSGKGLEWLAHIYWDDDKRYNPSLKSRLTISKDTSRNQVFLKITSVDTADTATYYCARRGPDYYGYYPMDYWGQGTSVTVSAKTTAPSVYPLAPVCGDTTGSSVTLGCLVKGYFPEPVTLTWNSGSLSSGVHTFPAVLQSDLYTLSSSVTVTSSTWPSQSITCNVAHPASSTKVDKKIEPRGPTIKPCPPCKCPAPNLLGGPSVFIFPPKIKDVLMISLSPIVTCVVVDVSEDDPDVQISWFVNNVEVHTAQTQTHREDYNSTLRVVSALPIQHQDWMSGKEFKCKVNNKDLPAPIERTISKPKGSVRAPQVYVLPPPEEEMTKKQVTLTCMVTDFMPEDIYVEWTNNGKTELNYKNTEPVLDSDGSYFMYSKLRVEKKNWVERNSYSCSVVHEGLHNHHTTKSFSRTPG
light: DIVLTQSPASLAVSLGQRATISCRASKSVSTSSYSYMHWYQQKPGQPPKLLIKYTSNLESGVPARFSGSGSGTDFILNIHPVEEEDAATYYCQHSRELPWTFGGGTKLEIKRADAAPTVSIFPPSSEQLTSGGASVVCFLNNFYPKDINVKWKIDGSERQNGVLNSWTDQDSKDSTYSMSSTLTLTKDEYERHNSYTCEATHKTSTSPIVKSFNRNEC
modifications: Mus Musculus
For the molecule B2, the dissociation constant (Kd) in data set [9] (setting [11]) is 0.7 to 3.7 nM; in [9] (monovalent KD, read-out: KD), 0.4 nM. The “ka” value in data set [9] turned out to be 1.32e+06 M⁻¹ s⁻¹. In addition, in [9], the “kd” value was determined as 0.000564 s⁻¹.

The Papp B→A is how fast a substance crosses the layer from the basolateral side. The term Kd denotes the equilibrium constant for the complex coming apart.
